Measurements published in US20210395761, “SERINE RECOMBINASES MEDIATING STABLE INTEGRATION INTO PLANT GENOMES” (GREENVENUS, LLC, published 2021).

B1: N. benthamiana pseudo-attB Niben101Scf00773 (dsDNA)
DNA 1: ACATGGAGCAATGATGGAGAAAAATGGTGGTCATTACTACTGAAGTTGTCAAAGCAAAGCTGTCAGGTAACATCAAATGATCTCTAAATCAATTAGTCTT
DNA 2: AAGACTAATTGATTTAGAGATCATTTGATGTTACCTGACAGCTTTGCTTTGACAACTTCAGTAGTAATGACCACCATTTTTCTCCATCATTGCTCCATGT
B2: N. benthamiana pseudo-attB Niben101Scf04030 (dsDNA)
DNA 1: TTGCTGTCTTTTCATACTTTTCTAAGTTGAAAGTACTTGAAAGTACGACCAAGAAAATGATTATATTTGACACAGAAAATGCAAGGTACTTTGAATGTGA
DNA 2: TCACATTCAAAGTACCTTGCATTTTCTGTGTCAAATATAATCATTTTCTTGGTCGTACTTTCAAGTACTTTCAACTTAGAAAAGTATGAAAAGACAGCAA
B3: lettuce pseudo-attB 328302882 (dsDNA)
DNA 1: TCCGTCACAAATTGCATCACTACGACTAAGATCTTCATCAATGATTCTATTAAGGAGATTCTTACATTGAAGGAGAAGTTACATAAATTCTTTATTATTT
DNA 2: AAATAATAAAGAATTTATGTAACTTCTCCTTCAATGTAAGAATCTCCTTAATAGAATCATTGATGAAGATCTTAGTCGTAGTGATGCAATTTGTGACGGA
B4: N. benthamiana pseudo-attB Niben101Scf00732 (dsDNA)
DNA 1: not shown
DNA 2: not shown
B5: lettuce pseudo-attB 207599470 (dsDNA)
DNA 1: CAATGGTGAATATAGTCCGGCGACCAACTCTGTCCACTATCAGCAACGATAAAAAGGTCATGCTAAGACCCACAAGCCCAGTCACCACTGCTGACATAAG
DNA 2: CTTATGTCAGCAGTGGTGACTGGGCTTGTGGGTCTTAGCATGACCTTTTTATCGTTGCTGATAGTGGACAGAGTTGGTCGCCGGACTATATTCACCATTG
B6: N. benthamiana pseudo-attB Niben101Scf11415 (dsDNA)
DNA 1: CTAATATACATTGACAGTGTTAAAAAAAATCTATTAACGACAATATAGAGAAGAGAGTACTTACATGAATGACGTCTACTTTGACTCCGTCAATTCCAAC
DNA 2: GTTGGAATTGACGGAGTCAAAGTAGACGTCATTCATGTAAGTACTCTCTTCTCTATATTGTCGTTAATAGATTTTTTTTAACACTGTCAATGTATATTAG
B7: lettuce pseudo-attB 115327723 (dsDNA)
DNA 1: TATTTGTGATGTGACATGACAAATAATGATGTTACAATATTATGTACCTCTAAATGAGATCTAGCATTGAAGATTGCATGAATATTCTTGAGTGTGTTATT
DNA 2: AATAACACACTCAAGAATATTCATGCAATCTTCAATGCTAGATCTCATTTAGAGGTACATAATATTGTAACATCATTATTTGTCATGTCACATCACAAATA
B8: N. benthamiana pseudo-attB Niben101Scf13522 (dsDNA)
DNA 1: GGATAAGGGAGGGTTTAGATATTTTGAAAGGGTTAAGGGGTAAAATCACTAAGGGGGAATTAACAATGCACACTAGGGTTGCCTTAAAAGTGCCTATATA
DNA 2: TATATAGGCACTTTTAAGGCAACCCTAGTGTGCATTGTTAATTCCCCCTTAGTGATTTTACCCCTTAACCCTTTCAAAATATCTAAACCCTCCCTTATCC
B9: lettuce pseudo-attB 13364626 (dsDNA)
DNA 1: TGAATTTCTTATGAAGGTTACAACGCATCGTGGATTACAAGCAATTCTGTTTAGTCTGTTATGTTGTTGAATTTGAATGGATCTTGTCCTCAGTTACTCA
DNA 2: TGAGTAACTGAGGACAAGATCCATTCAAATTCAACAACATAACAGACTAAACAGAATTGCTTGTAATCCACGATGCGTTGTAACCTTCATAAGAAATTCA
B10: lettuce pseudo-attB 411877132 (dsDNA)
DNA 1: ATAAGTTTAGATCTTATTGAACTAGGCTTGTGGTGCTTGTTTAAGGCCATAAATCGCCTTATTCAAGCGACAAAAATGAGACGAATAGGTGGAGTCTTCA
DNA 2: TGAAGACTCCACCTATTCGTCTCATTTTTGTCGCTTGAATAAGGCGATTTATGGCCTTAAACAAGCACCACAAGCCTAGTTCAATAAGATCTAAACTTAT
B11: N. benthamiana pseudo-attB Niben101Scf04574 (dsDNA)
DNA 1: TAGGCTTACATTCCTGATGTACTATCCCATTATGCAATAATAAAGATGCAAAATAGGAAATGTCATTGACAGCTACGAGATCTATCTTTATTGATTCACT
DNA 2: AGTGAATCAATAAAGATAGATCTCGTAGCTGTCAATGACATTTCCTATTTTGCATCTTTATTATTGCATAATGGGATAGTACATCAGGAATGTAAGCCTA
B12: lettuce pseudo-attB 310607752 (dsDNA)
DNA 1: CACAAAAAATTGACCATTTCTAGCAACTTCCTATGATACGTTGATACTTTCTAAACATTAATTACAATGACAAAATGAAGTCTACCAAATCATTCATAGA
DNA 2: TCTATGAATGATTTGGTAGACTTCATTTTGTCATTGTAATTAATGTTTAGAAAGTATCAACGTATCATAGGAAGTTGCTAGAAATGGTCAATTTTTTGTG

How the values were obtained:
[1] = biological target: T1, SPβc2 serine recombinase (SPβc2-HA-NLS) (Bacillus subtilis phage SPβc2, UniProt O32006 SEQ:1-545); assay: cell_activity; partner attP vector; settings: tags: C-terminal HA and SV40 NLS
T1 sequence (O32006 whole entry): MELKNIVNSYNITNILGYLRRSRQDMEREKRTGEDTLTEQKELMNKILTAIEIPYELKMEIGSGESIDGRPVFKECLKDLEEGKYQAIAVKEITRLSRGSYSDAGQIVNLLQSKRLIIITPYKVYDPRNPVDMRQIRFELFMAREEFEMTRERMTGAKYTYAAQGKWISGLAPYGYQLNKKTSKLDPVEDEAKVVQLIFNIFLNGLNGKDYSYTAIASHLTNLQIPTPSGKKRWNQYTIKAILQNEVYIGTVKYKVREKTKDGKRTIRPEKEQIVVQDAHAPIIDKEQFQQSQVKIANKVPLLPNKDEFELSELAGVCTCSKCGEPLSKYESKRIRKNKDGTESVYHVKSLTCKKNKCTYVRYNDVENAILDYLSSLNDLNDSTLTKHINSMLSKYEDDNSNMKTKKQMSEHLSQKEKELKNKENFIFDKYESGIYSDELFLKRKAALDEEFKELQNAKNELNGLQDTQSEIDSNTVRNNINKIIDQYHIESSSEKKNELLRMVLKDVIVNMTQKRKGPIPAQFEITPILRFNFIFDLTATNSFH
Description: Wild tobacco relative Nicotiana benthamiana (Benthi) events were generated through co-transfection of a SPβc2 expression vector (or control filler vector: CAT) plus a target integration vector containing GFP, NptII, and a SPβc2 attachment site (attP, attB, or site-less control). Colonies were regenerated in the presence of a kanamycin gradient to detect NptII and the presence of GFP was determined through illumination with a blue “biolight” together with an appropriate filter (FIG. 1). […] Enhanced regeneration of transgenic colonies varied between 10 and 65 fold and was dependent on the Kanamycin concentration used for selection. […] Very few GFP-positive kanamycin-resistant colonies arose from the attB/SPβc2 or Siteless/SPβc2 conditions, indicating a dependence on the attP site for interaction with plant pseudo-attB sites. […] A total of 126 plants from 91 unique calli events were regenerated, transplanted into soil, and carried forward to seed collection (Table 7).
To determine whether any of the sites identified by GenomeWalker were preferentially utilized for integration by the SPβc2 recombinase, 64 attP/SPβc2 regenerated events were screened by end-point PCR for amplification of the left (35S side) gDNA:insert border.

[2] = biological target: T1, SPβc2 serine recombinase (SPβc2-HA-NLS); assay: cell_activity; partner attP vector; settings: tags: C-terminal HA and SV40 NLS; remark: listed apart in the source
Text: In addition to the 20 GFP-positive kanamycin-resistant regenerated events, 35 GFP-positive kanamycin-resistant calli were also sampled for gDNA extraction and insertion analysis. These events were not analyzed by qPCR for NPT-II copy number due to the likelihood of circular non-integrated plasmid being present in the callus tissue. The 55 unique GFP-positive kanamycin-resistant attP/SPβc2 events were screened by end-point PCR for the right gDNA:insert junction (SpecR side) for each of the 7 previously identified integration sites. Four of the 7 insertion sites were identified in multiple unique events with one of the integration sites found in 8 events including the 2 events in which it was identified by next-gen sequencing (Table 13). Sanger sequencing of amplicons from both left and right gDNA:insert borders for 3 of the events with integrations in site 7493878 identified a lbp difference in the insert:gDNA recombination site compared to the originally identified borders (FIG. 20 C-E). As was done in Benthi, the population was also screened for presence of the recombinase expression construct (ID363); it was found in 2 out of the 20 regenerated attP/SPβc2 events (data not shown).

Binder	activity [1]	activity [2]
B1	1 integration events	
B2	2 integration events	
B3		2 integration events
B4	1 integration events	
B5		7 integration events
B6	1 integration events	
B7		1 integration events
B8	2 integration events	
B9		1 integration events
B10		2 integration events
B11	1 integration events	
B12		1 integration events
